The results in this text go back to US20260242478A1 (published 2026).

The target of test [1] is T1, Anti-PSMA Fab (SEQ ID NOs: 19, 20).
T1 construct: also called 006 PSMA Fab
Put plainly: phage ELISA; biotinylated PSMA Fab on neutravidin plate, clonal phage supernatant, anti-M13-HRP detection.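 Also: wells were preincubated with blocking buffer containing PSMA antigen or with blocking buffer only, then phage supernatant was added without washing for a brief incubation.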
Description: (§1) Clonal phage were harvested as crude supernatants and screened via standard ELISAs. […] Prior to the addition of clonal phage. wells were incubated with blocking buffer and PSMA antigen or blocking buffer alone. Without washing or aspirating, clonal phage supernatants were then added to the wells and incubated for a short time. Wells were then washed followed by detection of bound phage using a horse radish conjugated anti-M13 antibody.

Test [2] shares this target. Put plainly: phage ELISA; biotinylated PSMA Fab on neutravidin plate pre-incubated with PSMA antigen as competitor, anti-M13-HRP detection.
Description: as §1
Test [3] addresses T2, Anti-PSMA Fab (SEQ ID NOs: 19, 20).
T2 construct: Biotinylated PSMA Fab captured on neutravidin coated plates in the phage ELISA; also called 006 PSMA Fab
Put plainly: phage ELISA; PSMA Fab on plate pre-incubated with PSMA antigen as competitor, anti-M13 HRP detection.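 Also: crude clonal phage supernatants added to Fab-coated wells still holding PSMA antigen in blocking buffer, with bound phage as read-out.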
Description: as §1

For test [4] the target is unchanged. In words: phage ELISA; biotinylated PSMA Fab on neutravidin plate, clonal phage supernatant, anti-M13 HRP detection.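 Also: wells preincubated with PSMA antigen in blocking buffer or with blocking buffer only before clonal phage were added for a short incubation, then bound phage detected.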
Description: as §1

For AEKWCIPNWMCEAG [Phage-2144], the “Phage binding ELISA, Anti-PSMA Fab (SEQ ID NOs: 19, 20) signal” value in test [1] came to 1.69. The “Phage binding ELISA, Anti-PSMA Fab signal in the presence of PSMA” value (from here on “Phage binding ELISA … of PSMA”) in test [2] amounted to 0.0588.
For EMKLCRPAWMCEYM [Phage-2141], the “Phage binding ELISA, Anti-PSMA Fab (SEQ ID NOs: 19, 20) signal” value in test [1] is 1.69. Moreover, the “Phage binding ELISA … of PSMA” value in test [2] worked out at 0.0727.
The matching figures for MVNWCTPPWMCWGF [Phage-2145]: 1.69 and 0.194.

B1: Phage-2149 (peptide)
peptide: ITNWCKPAWMCEVS
notes: Clonal phage of the Peptide-180 library, tested as crude supernatant; not shown: fused to the pIII filament of the bacteriophage
Turning to B1, in test [3], the “Phage binding ELISA … of PSMA” value came out at 0.114. The “Phage binding ELISA, Anti-PSMA Fab (SEQ ID NOs: 19, 20) signal” value in test [4] worked out at 1.68.
Regarding VQKWCIPEWMCAVA [Phage-2138], the “Phage binding ELISA, Anti-PSMA Fab (SEQ ID NOs: 19, 20) signal” value in test [1] was determined as 1.7. The “Phage binding ELISA … of PSMA” value in test [2] is 0.0584.
For EHKWCIPSWMCADM [Phage-2140], the “Phage binding ELISA, Anti-PSMA Fab (SEQ ID NOs: 19, 20) signal” value in test [1] amounted to 1.69. For the same molecule, in test [2], the “Phage binding ELISA … of PSMA” value was 0.108.

B2: Phage-2151 (peptide)
peptide: YEIRCIPPWMCAFD
notes: as for B1
Turning to B2, the “Phage binding ELISA … of PSMA” value in test [3] stood at 0.117. Further, the “Phage binding ELISA, Anti-PSMA Fab (SEQ ID NOs: 19, 20) signal” value in test [4] is 1.68.

B3: Phage-2147 (peptide)
peptide: VEKWCIPQWMCVSQ
notes: as for B1
Take B3: in test [3], the “Phage binding ELISA … of PSMA” value stood at 0.0673. Further, the “Phage binding ELISA, Anti-PSMA Fab (SEQ ID NOs: 19, 20) signal” value in test [4] came to 1.69.
As to VYKWCTPPWMCTQM [Phage-2136], in test [1], the “Phage binding ELISA, Anti-PSMA Fab (SEQ ID NOs: 19, 20) signal” value was 1.7. For the same molecule, in test [2], the “Phage binding ELISA … of PSMA” value was found to be 0.0779.
In the same order, the values of VWHWCTPPWMCNAE [Phage-2143] are 1.69 and 0.141.
In the same order, the values of SAPWCIPEWMCFSL [Phage-2146] are 1.69 and 0.101.
For TERWCVPAWMCTLV [Phage-2135], the “Phage binding ELISA, Anti-PSMA Fab (SEQ ID NOs: 19, 20) signal” value in test [1] is 1.7. In addition, the “Phage binding ELISA … of PSMA” value in test [2] was 0.0741.

B4: Phage-2150 (peptide)
peptide: VHIWCIPQWMCMDR
notes: as for B1
Consider B4, for which the “Phage binding ELISA … of PSMA” value in test [3] was found to be 0.202. The “Phage binding ELISA, Anti-PSMA Fab (SEQ ID NOs: 19, 20) signal” value in test [4] was 1.68.
In the case of VLKWCIPTWMCETQ [Phage-2137], the “Phage binding ELISA, Anti-PSMA Fab (SEQ ID NOs: 19, 20) signal” value in test [1] is 1.7. Besides, in test [2], the “Phage binding ELISA … of PSMA” value turned out to be 0.0908.

B5: Phage-2148 (peptide)
peptide: IMKLCMPPWMCAAM
notes: as for B1
As for B5, in test [3], the “Phage binding ELISA … of PSMA” value came out at 0.0907. For the same molecule, the “Phage binding ELISA, Anti-PSMA Fab (SEQ ID NOs: 19, 20) signal” value in test [4] stood at 1.68.
As for LEKWCTPSWMCIGI [Phage-2139], the “Phage binding ELISA, Anti-PSMA Fab (SEQ ID NOs: 19, 20) signal” value in test [1] was 1.7. The “Phage binding ELISA … of PSMA” value in test [2] is 0.0773.
The matching figures for IPKWCTPVWMCEGM [Phage-2142]: 1.69 and 0.0647.
